Measured values as given in publication PMC3553987.

Target: c-Myc;Max isoform (human;human, UniProt P01106;P61244 16-454;2-160, |)
Assay: TIRF-PBM

Sequence of c-Myc;Max isoform (P01106 16-454, chain 1 of 2): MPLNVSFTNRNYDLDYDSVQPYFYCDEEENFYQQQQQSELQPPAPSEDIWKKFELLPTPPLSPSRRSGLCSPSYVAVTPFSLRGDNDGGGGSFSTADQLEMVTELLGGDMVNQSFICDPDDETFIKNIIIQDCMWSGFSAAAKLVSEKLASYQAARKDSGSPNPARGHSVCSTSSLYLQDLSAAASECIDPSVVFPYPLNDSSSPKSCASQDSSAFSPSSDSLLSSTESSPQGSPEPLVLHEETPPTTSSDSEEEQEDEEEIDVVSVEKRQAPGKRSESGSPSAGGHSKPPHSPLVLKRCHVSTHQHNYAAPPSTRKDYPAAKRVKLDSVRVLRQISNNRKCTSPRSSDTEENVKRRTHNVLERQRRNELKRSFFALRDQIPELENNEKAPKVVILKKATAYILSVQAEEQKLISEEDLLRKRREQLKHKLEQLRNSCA
Sequence of c-Myc;Max isoform (P61244 2-160, chain 2 of 2): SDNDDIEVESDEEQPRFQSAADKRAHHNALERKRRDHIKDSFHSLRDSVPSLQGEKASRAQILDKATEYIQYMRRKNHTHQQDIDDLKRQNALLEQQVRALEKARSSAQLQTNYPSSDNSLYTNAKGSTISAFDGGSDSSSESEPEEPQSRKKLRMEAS

B1: sequence 7 (12 A repeat) (dsDNA)
DNA 1: GCTACGAGCGCAAAAAAAAAAAAATGATAGCAAGCTCAAGTCAATCGGTCC
DNA 2: GGACCGATTGACTTGAGCTTGCTATCATTTTTTTTTTTTTGCGCTCGTAGC
modifications: 5' amino on one strand, coupled to hydrogel
binding result: binds
